Assay results published in patent US20220088215A1.

Target: Asialoglycoprotein receptor 1 (ASGR1) on the surface of HEPG2 cells (human) (UniProt P07306)
Assay: cell-based or functional assay

Chain of UniProt P07306 (P07306 whole entry): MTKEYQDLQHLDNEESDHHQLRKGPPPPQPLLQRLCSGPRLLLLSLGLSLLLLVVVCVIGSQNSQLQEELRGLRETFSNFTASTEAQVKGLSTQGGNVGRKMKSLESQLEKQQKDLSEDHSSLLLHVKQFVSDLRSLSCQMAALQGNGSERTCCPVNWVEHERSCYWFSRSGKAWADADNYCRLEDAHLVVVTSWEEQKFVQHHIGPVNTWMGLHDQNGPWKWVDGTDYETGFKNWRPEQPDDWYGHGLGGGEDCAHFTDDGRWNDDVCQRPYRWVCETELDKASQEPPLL

With “Anti-Asialoglycoprotein Receptor 1/HL-1 antibody (abCAM, Product Number ab49355)” the improvement of mmu-miR-298-5p uptake efficiency into HEPG2 cells, against unmodified EVs was 60%, the relative quantification of mmu-miR-298-5p in Hep-G2 cells (qRT-PCR, relative ratio to control cells) (relative ratio) was 2000 and the relative quantification of mmu-miR-298-5p in Hep-G2 cells, against DharmaFECT transfection was 8 fold.
